Measurements taken from patent US20040127421A1 (KIMBERLY CLARK WORLDWIDE, published 2004).

Columns and labels:
Active MMP-9 enzyme [1] = molecular target: T1, Active MMP-9 enzyme (UniProt P14780 107-707, limits assumed); assay: enzyme inhibition, FRET peptide substrate
T1 construct: mature; also called matrix metalloproteinase-9; mature MMP-9
Description: (§1) The second assay utilized the technique of fluorescence resonance energy transfer (FRET). The substrate peptide (Calbiochem) of seven amino acids was coupled to a carboxyl terminal dinitrophenyl acceptor, and an amino terminal 2-aminobenzo-anthraniloyl (Abz) moiety donor. […] The protein mixture was added to the fluorescent peptide substrate, and was quickly mixed. Fluorescence intensity as a function of time was measured with a Dynex MFX fluorescence microtiter plate reader. Fluorescence intensity was related back to moles of peptide cleaved by producing a standard curve with an Abz containing non-FRET peptide.
(§2) These assays utilized FRET peptides that incorporated specific MMP cleavage sites into their sequence.

Active MMP-9 enzyme [2] = molecular target: T1, Active MMP-9 enzyme; assay: enzyme inhibition, fluoresceinated collagen substrate, Dixon plot
Description: Two enzymatic assays were performed. The first assay measured the enzymatic hydrolysis of fluoresceinated collagen by MMP-9 as a function of time. […] The protein mixture was added to the collagen substrate, and was quickly mixed. Fluorescence emission intensity at 520 nm was measured as a function of time (excitation wavelength 495 nm) in a Shimadzu RF5301 fluorometer (Lakowicz, 1983). The fluorescein release assay was used to determine the inhibitory constant (Ki) of the peptide inhibitor ([I]) according to Segel (1993) via the use of Dixon plots (1/v vs. [I]), such that: […]

MMP-7 = molecular target: T2, MMP-7 (UniProt P09237 95-267, limits assumed); assay: enzyme inhibition, FRET peptide substrate
T2 construct: also called matrix metalloproteinase-7
T2 sequence (looked up): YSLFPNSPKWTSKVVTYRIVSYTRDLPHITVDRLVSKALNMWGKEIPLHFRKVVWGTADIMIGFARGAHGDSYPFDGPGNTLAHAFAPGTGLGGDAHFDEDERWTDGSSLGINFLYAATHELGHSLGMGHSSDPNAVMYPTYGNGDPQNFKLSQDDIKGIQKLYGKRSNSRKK
Description: as §1, §2

MMP-3 = molecular target: T3, MMP-3 (UniProt P08254 100-477, limits assumed); assay: enzyme inhibition, FRET peptide substrate
T3 construct: also called matrix metalloproteinase-3
T3 sequence (P08254 100-477 limits assumed): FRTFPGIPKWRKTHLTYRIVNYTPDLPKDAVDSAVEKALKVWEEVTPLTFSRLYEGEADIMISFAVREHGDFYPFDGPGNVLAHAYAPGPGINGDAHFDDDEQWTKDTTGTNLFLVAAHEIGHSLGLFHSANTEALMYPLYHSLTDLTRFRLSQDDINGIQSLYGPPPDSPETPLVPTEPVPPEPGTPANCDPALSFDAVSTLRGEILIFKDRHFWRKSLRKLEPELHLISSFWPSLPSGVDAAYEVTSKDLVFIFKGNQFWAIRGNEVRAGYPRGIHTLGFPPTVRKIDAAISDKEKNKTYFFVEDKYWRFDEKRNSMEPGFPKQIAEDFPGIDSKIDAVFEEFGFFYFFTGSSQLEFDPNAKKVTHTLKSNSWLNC
Description: as §1, §2

Active MMP-9 enzyme [3] = molecular target: T1, Active MMP-9 enzyme; assay: isothermal titration calorimetry, 1 mM peptide into 20 µM MMP-9, 20 mM cacodylate pH 6.8, 20 mM NaCl
Description: Isothermal titration calorimetry (ITC) was performed with a VP-ITC instrument from MicroCal, Inc. Titrations were carried out by injecting 5 μL of an inhibitor peptide solution (at concentration ranges from 0.5 mM to 2.0 mM) into the 1.4 mL stirred reaction cell. MMP-9 ranged in concentration from 50 to 80 μM in the cell. Both the inhibitor and the enzyme were in 20 mM sodium cacodylate (pH 5.5-7.0), 40 mM NaCl, or 20 mM Tris-HCl (pH 7.0-7.5), 40 mM NaCl. Titrations were conducted between 20° C. and 40° C. Typical experimental conditions for the titrations were a 10 second injection period followed by a 240 second delay between injections for a total of 40 injections. Blank titrations of inhibitor peptide into buffer were performed in order to correct for heats of dilution and mixing.
The peptide was dissolved in 20 mM cacodylate (pH 6.8), 20 mM NaCl at a final concentration of 1 mM. MMP-9 was dialyzed into the same buffer at a final concentration of 20 μM. A series of standard injections were performed as described above.

Active MMP-9 enzyme [4] = molecular target: T1, Active MMP-9 enzyme; assay: SPR (BIACore-X), calculated from ka/kd
Description: MMP-9 at a concentration of 75 ng/μL was coupled to the activated surface at a flow rate of 10 μL per minute for ten minutes. The final surface was inactivated by flowing 1 M ethanolamine-HCl at a rate of 10 μL per minute for five minutes over the sensor surface. […] The association and dissociation phases of the binding isotherms were smoothed by an automated FFT routine prior to modeling rate constants. Binding isotherms were evaluated by simultaneously fitting the forward (kₐ) and reverse (kd) rate constants to:
There was an observed bulk transport effect of approximately 100 response units at the start of the dissociation phase that was not modeled.

MMP-2 = molecular target: T4, MMP-2 (Homo sapiens (Human), UniProt P08253 110-660); assay: isothermal titration calorimetry, 1 mM 19-mer into 20 µM MMP-2, 20 mM cacodylate pH 6.8, 10 mM NaCl, 25° C.
T4 construct: an active enzyme without signal and propeptide is likely; also called matrix metalloproteinase-2
T4 sequence: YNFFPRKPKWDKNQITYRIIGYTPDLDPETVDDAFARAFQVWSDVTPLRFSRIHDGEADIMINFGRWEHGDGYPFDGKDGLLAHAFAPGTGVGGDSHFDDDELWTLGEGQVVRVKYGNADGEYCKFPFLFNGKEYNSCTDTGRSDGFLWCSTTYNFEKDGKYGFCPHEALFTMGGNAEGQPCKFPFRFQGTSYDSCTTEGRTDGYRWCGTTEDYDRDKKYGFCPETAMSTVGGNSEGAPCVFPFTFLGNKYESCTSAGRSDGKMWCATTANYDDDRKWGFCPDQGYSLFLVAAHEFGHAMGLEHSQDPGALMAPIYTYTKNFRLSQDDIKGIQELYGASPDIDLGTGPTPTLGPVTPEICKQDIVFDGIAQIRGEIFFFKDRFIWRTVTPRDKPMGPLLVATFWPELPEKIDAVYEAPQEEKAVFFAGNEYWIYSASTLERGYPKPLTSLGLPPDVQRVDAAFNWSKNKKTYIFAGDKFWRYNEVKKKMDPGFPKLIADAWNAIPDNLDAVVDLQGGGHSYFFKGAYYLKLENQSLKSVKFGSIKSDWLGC

T1 sequence (P14780 107-707 limits assumed): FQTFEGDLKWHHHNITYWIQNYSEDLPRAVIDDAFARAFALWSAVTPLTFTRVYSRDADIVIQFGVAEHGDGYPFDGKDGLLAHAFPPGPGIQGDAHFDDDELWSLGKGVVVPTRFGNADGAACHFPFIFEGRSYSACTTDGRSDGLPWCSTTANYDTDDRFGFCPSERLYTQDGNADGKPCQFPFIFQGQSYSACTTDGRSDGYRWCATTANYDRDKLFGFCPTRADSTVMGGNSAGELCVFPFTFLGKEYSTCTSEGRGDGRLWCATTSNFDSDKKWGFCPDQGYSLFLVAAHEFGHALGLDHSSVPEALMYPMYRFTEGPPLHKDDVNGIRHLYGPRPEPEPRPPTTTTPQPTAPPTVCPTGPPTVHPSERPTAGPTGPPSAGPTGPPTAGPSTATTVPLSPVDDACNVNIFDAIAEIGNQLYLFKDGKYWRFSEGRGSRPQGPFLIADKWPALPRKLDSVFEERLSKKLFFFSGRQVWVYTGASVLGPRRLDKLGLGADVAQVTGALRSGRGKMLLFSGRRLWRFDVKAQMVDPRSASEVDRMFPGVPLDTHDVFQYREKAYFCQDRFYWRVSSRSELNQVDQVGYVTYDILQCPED

PRCGNPDVA [9-mer (SEQ ID NO:12) PRCGNPDVA] was tested, and the Ki (Active MMP-9 enzyme [1]) was 233 µM and the Ki (Active MMP-9 enzyme [2]) was 186 µM.

NYNFFPRKPK [10-mer (SEQ ID NO:13) NYNFFPRKPK] showed a Ki (Active MMP-9 enzyme [1]) of 328 µM and a Ki (Active MMP-9 enzyme [2]) of 221 µM.

B1: 19-mer (SEQ ID NO:11) PRCGNPDVANYNFFPRKPK (peptide)
peptide: H-PRCGNPDVANYNFFPRKPK-OH
notes: Synthesized by Sigma-Genosys, >95% pure by RP-HPLC; Free termini; the acetylated/amidated Ac-19-mer was used only in migration assays; also called 19mer peptide
For B1, the Ki (Active MMP-9 enzyme [1]) was 45.2 µM, the Ki (MMP-7) was 22.8 µM and the Ki (MMP-3) was 6.4 µM. The Ki (Active MMP-9 enzyme [2]) was 30.3 µM, the Ka (Active MMP-9 enzyme [3]) was 1.65e+06 M⁻¹ and the Stoichiometry (Active MMP-9 enzyme [3]) was 0.975. It also gave a ΔH (Active MMP-9 enzyme [3]) of -26.1 kcal/mol, a ΔS (Active MMP-9 enzyme [3]) of -11.6 cal mol^-1 K^-1 and a Ka (Active MMP-9 enzyme [4]) of 5.3e+06 M⁻¹. The Ka (MMP-2) was 2.4e+06 M⁻¹, the Stoichiometry (MMP-2) was 0.99 and the ΔH (MMP-2) was -15.4 kcal/mol. It also gave a ΔS (MMP-2) of -21.1 cal mol^-1 K^-1.
